Key:
[1] = target: castor seed 2S protein (Ricinus communis, UniProt P01089); format: biochemical; conditions: 20 min at 25° C.
[2] = target: T1, pepsin (Sus scrofa, UniProt P00791); assay: Pepsin assay in simulated gastric fluid (Example 39); format: in vitro ADME, porcine
T1 construct: purchased Sigma
Experimental: BLG, 640 μg, or milk, 1 mg protein (i.e., about 30 μl), was incubated with or without the thioredoxin system (NTS) at either 4° C. […] The BLG, 320 μg, or milk, 500 μg protein, was then treated in 200 μl of simulated gastric fluid (SGF) as described by Astwood, J. D. et al. (1996), “Stability of food allergens to digestion in vitro”, Nature Biotechnol. 14:1269-1273. SGF consists of 0.32% pepsin (w/v) and 30 mM NaCl adjusted at pH 1.2 with HCl (Board of Trustees (ed.) 1995, Simulated Gastric Fluid, TS., pp. 2053 in the United States Pharmacopeia 23, The National Formulary 18. United States Pharmacopeial Convention, Inc. Rockville, Md.). The reaction mixture was incubated at 37° C. and stopped by adding 0.375-fold volume of 160 mM Na2CO3 (ca. pH 7) after 0, 0.25, 1, 2, 4, 8, 15, 30 and 60 min incubation. The protein mixture was then subjected to SDS-PAGE (15% gels) and stained for protein with Coomassie blue as described below. As indicated, the allergenicity of the digested samples was determined by skin test analysis.

[3] = target: T1, pepsin; assay: Stability to pepsin in simulated gastric fluid (Example 44); format: in vitro ADME, porcine; conditions: 37° C., 0.32% pepsin
Experimental: Assay for Stability to Pepsin. BLG (1 mg/ml) or milk (15 mg/ml) were mixed with simulated gastric fluid (SGF) to give 0.32% pepsin and incubated for the indicated times at 37° C. as described in Example 39 and Astwood et al., 1996, herein incorporated by reference. The digested proteins were analyzed by reducing SDS-PACE (10 to 20% gradient gel) also as described in Laemmli, 1970, herein incorporated by reference.

[4] = Redox stability of reduced BLG in air; format: physicochemical; conditions: NTS-treated raw milk without buffer, stored at 4° C. in air
Experimental: BLG is known to contain two disulfides, both intramolecular (See, FIG. 8): one clearly accessible on the surface and located close to the C-terminus (Cys 66-Cys 160) and the other, close to the core, located between two β-sheets (Cys 106-Cys 119 or possibly Cys 106-Cys 121). Sequence analysis confirmed that the exposed disulfide (Cys 66-Cys 160) was reduced at 55° C. […] Differential reduction of BLG could also be achieved by altering pH. […] Furthermore, the BLG in this treated milk without buffer remained reduced for 2 days when stored at 4° C. in air (data not shown).
Two sulfhydryl (SH) groups can often spontaneously react to form an S—S bond in the presence of oxygen. […] For example, the reduced form of β-lactoglobulin (BLG), a major allergen of cow's milk, is fully reoxidized after 3 days in air whether reduced by either NTS or DTT. This invention provides for the stabilization of proteins, including allergenic proteins reduced by the NTS at 4° C. and by DTT at 55° C. Other physiological reductants such as lipoic acid may also be used to initially reduce the proteins. In general, the reduction reactions were conducted as described in previous examples. The proteins are stabilized in that the SH groups of these proteins and allergens are blocked and prevented from reoxidizing to form S—S bonds. […]

[5] = system: trypsin; assay: Trypsin proteolysis of purified milk allergens; format: biochemical; conditions: 10 μg NTS reduced protein, 2 μg trypsin
Experimental: The analysis of the reduction was done using the mBBr/SDS-PAGE techniques. Further in this study, when 10 μg of an NTS reduced purified milk allergen protein, β-lactoglobulin (Sigma Chemical Co.), was treated with 2 μg of trypsin, proteolysis was 100% as compared with only 50% for the identically trypsin treated oxidized β-lactoglobulin. […] However, 10 μg of purified α-lactalbumin reduced by the NTS was proteolyzed 80% by trypsin. Also 10 μg of α-lactalbumin reduced by 0.8 μg of thioredoxin and 0.5 mM DTT was 100% proteolyzed by 2 μg of trypsin.

[6] = system: atopic dogs; assay: Skin tests with milk and BLG in atopic dogs (Example 39); format: in vivo; conditions: dog model skin tests
Experimental: Newborn pups from two litters of the atopic dog colony, designated CGB and GCB, were injected subcutaneously at day 1 with 1 μg each of wheat, cows milk and beef extract (Miles, Inc., Elkhart, Ind., described in Example 33) in 0.2 ml of alum. A third litter, designated CBB, was injected with a soy extract (Miles, Inc. described in Example 33) in addition to these same allergens. Procedures for the sensitization, testing and maintenance of the pups were substantially the same as those described in Example 36.
About 3 min prior to skin testing, each dog received 4-5 ml of filtered 0.5% Evans blue dye solution (equivalent to 0.2 ml of 0.5% Evans blue dye per kg of weight) through a cephalic vein to enhance assessment of the cutaneous IgE antibodies. Serial dilutions of 100 μl of each sample were injected intradermally on the abdominal skin to establish the titer. After 15-20 min, the allergic response was determined by measuring the size of the blue wheal reaction (maximum length and width). An appropriate negative control (buffer diluted in physiological saline) was included for each animal tested. Repeated tests with thioredoxin, NTR, NADPH and pepsin alone were consistently negative.

[7] = system: trypsin; conditions: soy flour, 30 min at 120° C. (Friedman et al., 1991); cited from earlier work
[8] = system: wheat protease preparation; assay: Susceptibility to proteolysis by a plant protease preparation, SDS-PAGE densitometry; format: biochemical
Experimental: The endosperm (10-15 g fresh weight) isolated from 5-day germinated wheat seeds by excising the roots and shoots was extracted for 30 minutes at 4° C. with 5 volumes of 200 mM sodium acetate, pH 4.6, containing 10 mM β-mercaptoenthanol. The homogenate was centrifuged for 20 minutes at 48,000 g, 4° C. The pellet was discarded and the supernatant fluid was fractionated with 30-70% ammonium sulfate. This fraction, which represented the protease preparation, was resuspended in a minimum volume of 20 mM sodium acetate, pH 4.6, containing 10 mM β-mercaptoenthanol, and dialyzed against this buffer overnight at 4° C.
Unless indicated, the reduction of the trypsin inhibitors (0.4 mg/ml) was carried out in 0.1 ml of 20 mM sodium phosphate buffer, pH 7.9 containing 10 mM EDTA at 30° C. for 2 hours. The concentrations of thioredoxin, NTR, and NADPH were 0.024 mg/ml, 0.02 mg/ml, and 0.25 mM, respectively. […] Following reduction, aliquots of the inhibitor mixture were withdrawn either for determination of trypsin inhibitory activity or proteolytic susceptibility. In the subtilisin tests, the inhibitor mixture (50 μl) was directly mixed with subtilisin and incubated at room temperature for 1 hour. With the wheat protease preparation, the pH of the inhibitor mixture (50 μl) was first adjusted to 4.7 by mixing with 35 μl of 200 mM sodium acetate, pH 4.6; 10 μl of the wheat protease preparation was then added and incubation was continued for 2 hours at 37° C. To stop digestion with subtilisin, 2 μl of 100 mM phenylmethylsulfonyl fluoride (PMSF) and 10 μl of 10% SDS were added to the digestion mixture. With the plant protease preparation, digestion was stopped by adding an equal volume of SDS sample buffer [0.125 M Tris-HCl, pH 6.8, 4% (w/v) SDS, 20% (v/v) glycerol, 10% (v/v) β-mercaptoethanol, and 0.02% (w/v) bromophenol blue]. Proteolytic products were analyzed by electrophoresis with 12% or 16% SDS polyacrylamide slab gels (Laemmli, 1970). The dried slab gels were scanned with a laser densitometer (Pharmacia-LKB UltraScan XL) and the peak area of the KTI or BBTI protein band was obtained by integration with a Pharmacia GelScan XL software program.
To test whether the reduced forms of KTI and BBTI show decreased stability to proteases other than trypsin, both the reduced and oxidized forms of KTI and BBTI were incubated with a wheat protease preparation or with subtilisin and the proteolytic products were analyzed by SDS-PAGE. The extent of proteolysis was determined by measuring the abundance of intact protein on SDS gels by laser densitometer. When tested with a protease preparation from 5-day germinated wheat seeds, the oxidized form of the Kunitz inhibitor was almost completely resistant to digestion whereas the thioredoxin-reduced form was susceptible to protease. […] The nature of the proteolytic reaction was not investigated, but it is noted that peptide products were not detected on SDS gels.

[9] = target: T2, glutaredoxin (Escherichia coli, UniProt P68688); assay: Reduction by glutaredoxin, mBBr/SDS-PAGE with densitometric scanning; format: biochemical; conditions: E. coli glutaredoxin, glutathione reductase, NADPH
T2 sequence (P68688 1-85): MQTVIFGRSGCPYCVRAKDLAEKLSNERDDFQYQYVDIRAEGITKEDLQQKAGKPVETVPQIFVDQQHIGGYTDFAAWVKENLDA
Experimental: Direct reduction of the proteins under study was determined by a modification of the method of Crawford et al. (Crawford, N. A. et al. (1989), Arch. Biochem. Biophys. 271:223-239). The reaction was carried out in 100 mM potassium phosphate buffer, pH 7.1, containing 10 mM EDTA and 16% glycerol in a final volume of 0.1 ml. As indicated, 0.7 μg (0.1 μM) NTR and 1 μg (0.8 μM) thioredoxin (both routinely from E. coli were added to 70 μl of the buffer solution containing 1 mM NADPH and 10 μg (2 to 17 μM) of target protein. When thioredoxin was reduced by dithiothreitol (DTT, 0.5 mM), NADPH and NTR were omitted. Assays with reduced glutathione were performed similarly, but at a final concentration of 1 mM. After incubation for 20 min, 100 nmoles of mBBr were added and the reaction was continued for another 15 min. To stop the reaction and derivatize excess mBBr, 10 μl of 10% SDS and 10 μl of 100 mM β-mercaptoethanol were added and the samples were then applied to the gels. […]
This ability was tested, using glutaredoxin from E. coli and the seed proteins currently under study. Reduction activity was monitored by the mBBr/SDS polyacrylamide gel electrophoresis procedure coupled with densitometric scanning.

[10] = system: trypsin; assay: Trypsin inhibition assay; format: biochemical
Experimental: Unless indicated, the reduction of the trypsin inhibitors (0.4 mg/ml) was carried out in 0.1 ml of 20 mM sodium phosphate buffer, pH 7.9 containing 10 mM EDTA at 30° C. for 2 hours. The concentrations of thioredoxin, NTR, and NADPH were 0.024 mg/ml, 0.02 mg/ml, and 0.25 mM, respectively. […] Following reduction, aliquots of the inhibitor mixture were withdrawn either for determination of trypsin inhibitory activity or proteolytic susceptibility. In the subtilisin tests, the inhibitor mixture (50 μl) was directly mixed with subtilisin and incubated at room temperature for 1 hour. […] Proteolytic products were analyzed by electrophoresis with 12% or 16% SDS polyacrylamide slab gels (Laemmli, 1970). […]
Thioredoxin and NTR were assayed as previously described by Florencio et al. (1988). Trypsin activity was measured in 50 mM Tris-HCl, pH 7.9, by following the increase in absorbance at 253 nm with N-benzoyl-L-arginine ethyl ester as substrate (Mundy et al., 1984) or by the release of azo dye into the trichloroacetic acid (TCA)-soluble fraction from azocasein substrate (see below). For trypsin inhibition assays, trypsin (5 to 10 μg) was preincubated with appropriate amounts of KTI or BBTI for 5 minutes at room temperature in 50 mM Tris-HCl, pH 7.9 and proteolytic activity was then determined. […]

T1 sequence (P00791 60-385): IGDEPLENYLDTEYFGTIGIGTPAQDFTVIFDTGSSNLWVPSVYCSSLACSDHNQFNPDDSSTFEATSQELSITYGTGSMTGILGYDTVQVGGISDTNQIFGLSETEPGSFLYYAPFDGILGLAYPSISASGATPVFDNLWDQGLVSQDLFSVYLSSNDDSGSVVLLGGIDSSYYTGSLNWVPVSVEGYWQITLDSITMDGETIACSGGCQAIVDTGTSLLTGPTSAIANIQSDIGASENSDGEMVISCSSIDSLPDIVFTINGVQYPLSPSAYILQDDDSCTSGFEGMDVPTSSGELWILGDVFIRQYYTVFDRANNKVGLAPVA
Chain of castor seed 2S protein (P01089 194-258 limits assumed): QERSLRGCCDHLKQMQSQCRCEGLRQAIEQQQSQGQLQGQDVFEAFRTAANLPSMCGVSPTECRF
Chain of castor seed 2S protein (P01089 157-190 partner limits assumed): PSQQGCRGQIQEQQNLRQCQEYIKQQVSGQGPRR

O[C@H](CS)[C@H](O)CS (racemic) [DTT, dithiothreitol]
Relative Reduction (%) [1]: 67%

β-lactoglobulin: bovine β-lactoglobulin, major milk allergen; untreated (oxidized) control in Tables XVIII, XXI-XXIV
time resisting digestion in SGF ([2]; oxidized BLG in milk): at least 60 min | time to digestion in SGF ([2]; thioredoxin-reduced BLG in milk): ≤ 60 s | half-life in SGF [3]: about 2 hours | time BLG remained reduced [4]: 2 days | proteolysis by trypsin [5]: 100% | share of the total wheal-inducing activity of milk [6]: 80%

B1: Soybean Kunitz: Kunitz soybean trypsin inhibitor (protein, UniProt P01070 25-205, looked up)
Trypsin inhibitor A: DFVLDNEGNPLENGGTYYILSDITAFGGIRAAPTGNERCPLTVVQSRNELDKGIGTIISSPYRIRFIAEGHPLSLKFDSFAVIMLCVGIPTEWSVVEDLPEGPAVKIGENKDAMDGWFRLERVSDDEFNNYKLVFCPQQAEDDKCGDIGISIDHDDGTRRLVVSKNKPLVVQFQKLDKESL
original trypsin inhibitor activity remaining [7]: about 20% | Relative Abundance ([8]; Protease after E. coli NTS): 22.1 | Relative Abundance ([8]; Protease after NTS minus NADPH): 97.7 | Relative Abundance ([8]; Protease after NTS minus NTR): 97.9 | Relative Abundance ([8]; Protease after NTS minus thioredoxin): 90.2 | Relative Abundance ([8]; Protease, No reduction system, no protease = 100): 97.9 | degraded ([8]; all components of NTS present): about 80% | percentage reduction by glutaredoxin relative to E. coli thioredoxin [9]: ineffective | increase in trypsin activity effected by the NADP/thioredoxin system [10]: 3 fold

— patent US20040091578A1 (priority 2001, published 2004)
